From US20250154240A1, “ANTI-HUMAN CXCL1 ANTIBODY” (CHIOME BIOSCIENCE INC., priority 2022, published 2025) come the findings set out here.

One assay has as its system CXCR2-expressing cells. The assay can be described thus: In vivo migration inhibitory activity test on CXCR2-expressing cells, OCUM-12 orthotopic transplantation (prevention model). Also on record: species or system mouse. The settings on record: 400 μg/head intraperitoneally twice a week, 3 weeks; compared to hIgG1 antibody.
Source text: (§1) The stomachs after measurement of the tumor size in [3-1] above were excised and fixed overnight at room temperature with a 10% neutral buffered formalin solution (Wako Pure Chemical Industries, Ltd., Japan), followed by replacement with PBS. Then, paraffin embedding and section preparation were outsourced to Applied Medical Research Laboratory, Japan. The prepared gastric tumor sections were immunohistologically stained with an anti-CXCR2 antibody to evaluate in vivo CXCR2 cell migration inhibitory activity. The sections were deparaffinized and rehydrated, and then treated to inactivate endogenous peroxidase. After antigen activation treatment, the sections were blocked with PBS containing 2% skimmed milk and 0.1% Tween-20, and reacted overnight at 4° C. with an anti-CXCR2 antibody (Biorbyt) as a primary antibody, which had been diluted to 0.3 μg/mL with the blocking solution. After washing with PBS containing 0.1% Tween-20, the sections were reacted at room temperature for 1 hour with an HRP-labeled goat anti-rabbit IgG antibody (Abcam) as a secondary antibody. After washing with a washing solution, a simple stain DAB solution (5052, Nichirei Corporation, Japan) was used to cause color development. After images of the stained tissues were captured with an Explore (Olympus Corporation, Japan), imaging software CellSens (Olympus Corporation, Japan) was used to calculate CXCR2-positive cells per unit area.
(§2) Navarixin is among small molecular compounds that act on CXCR2 and inhibit CXCL1-CXCR2 signaling. […] Then, using a model with OCUM-12 orthotopic transplantation, the migration inhibition of CXCR2-expressing cells and antitumor activity were evaluated in vivo for Navarixin. As a vehicle, ultrapure water containing 20% 2-hydroxypropyl-β-cyclodextrin (FUJIFILM Wako Pure Chemical Corporation, Japan) was used. Navarixin (MedChemExpress) was dissolved in ultrapure water containing 20% 2-hydroxypropyl-β-cyclodextrin, and orally administered at a dose of 100 mg/kg/day in a schedule of once a day for 5 consecutive days, followed by a 2-day withdrawal.
as §1, with “after measurement were excised” for “after measurement of the tumor size in [3-1] above were excised”, “and 0.1% Tween-20 (hereinafter referred to as the blocking solution), and reacted” for “and 0.1% Tween-20, and reacted”, “been diluted 1667-fold with the” for “been diluted to 0.3 μg/mL with the”, “to calculate positive cells per” for “to calculate CXCR2-positive cells per”
The dose-response relationship between antibody dose and in vivo antitumor activity or CXCR2 migration inhibitory activity was evaluated in a xenograft prevention model with OCUM-12 orthotopic transplantation. A prevention model is a model designed to start antibody administration from the day following tumor transplantation. […]

Assay [1] relates to OCUM-12 gastric cancer cell line. The assay can be described thus: Antitumor activity test, model with OCUM-12 orthotopic transplantation (prevention model). The settings on record: 400 μg/head intraperitoneally twice a week, 3 weeks; compared to hIgG1 antibody. The assay is classed as in vivo, mouse. Here is the method: A model with OCUM-12 orthotopic transplantation was prepared to evaluate the above 4 types of candidate antibodies for their in vivo CXCR2 migration inhibitory activity and antitumor activity in a xenograft model with OCUM-12 orthotopic transplantation.
For use as mice, female nude mice (BALB/cAJcl-nu/nu) at 5 to 6 weeks of age were purchased from CLEA Japan, Inc., Japan. For use as human cancer cells, a gastric cancer cell line, OCUM-12, was provided by University Public Corporation Osaka, Japan.
OCUM-12 cells were cultured in D-MED medium (FUJIFILM Wako Pure Chemical Corporation, Japan) supplemented with 10% fetal bovine serum (FBS; Sigma-Aldrich Corporation) and 1/100 volumes of a penicillin-streptomycin mixture (Nacalai Tesque, Inc., Japan). The cells to be transplanted were detached with 0.25% trypsin/0.02% EDTA (Thermo Fisher Scientific) and washed with PBS, and 4× 10^5 cells per mouse were transplanted into the gastric wall of each mouse.
On the day following the above transplantation, the mice were randomized into groups (8 or 6 mice per group) and intraperitoneally administered with PBS as a control and with 4 types of candidate antibodies (1A-7H10, 4A-2F7, 5A-5E11 and 028-8-12) and 3 types of non-candidate antibodies (1A-3C6, 1A-2H3 and 4A-5B11) at a dose of 20 mg/kg. In addition, mouse IgG1 as a control was intraperitoneally administered at a dose of 20 mg/kg, and 3 types of antibodies (5A-5E11, 1A-4H10 and 4A-7G7) among the candidate antibodies were intraperitoneally administered at a dose of 20 mg/kg. The administration of these antibodies was then continued with a frequency of twice a week until the completion of the test. After 3 weeks had passed from the transplantation, the mice were sacrificed, and the short- and long-axis diameters of tumors formed in their gastric walls were each measured with a caliper. The tumor size was calculated according to the following: 1/2 short-axis diameter (mm)×1/2 long-axis diameter (mm)×3.14.
as §2
The humanized antibodies were evaluated for their in vivo antitumor activity and CXCR2 migration inhibitory activity in a xenograft model with OCUM-12 orthotopic transplantation. Procedures for the evaluation are shown below.
For use as mice, female nude mice (BALB/cAJcl-nu/nu) at 5 to 6 weeks of age were purchased from CLEA Japan, Inc., Japan. For use as human cancer cells, gastric cancer cell line, OCUM-12, was provided by Osaka Metropolitan University, Japan.
OCUM-12 cells were cultured in D-MED medium (FUJIFILM Wako Pure Chemical Corporation, Japan) supplemented with 10% fetal bovine serum (hereinafter abbreviated as FBS; Sigma-Aldrich Corporation) and 1/100 volumes of a penicillin-streptomycin mixture (Nacalai Tesque, Inc., Japan). The cells to be transplanted were detached with 0.25% trypsin/0.02% EDTA (Thermo Fisher Scientific) and washed with PBS, and 4×10^5 cells per mouse were transplanted into the gastric wall of each mouse. On the day following the transplantation, the mice were randomized into groups (8 mice per group) and intraperitoneally administered with test antibodies at a dose of 400 μg/head. PBS was intraperitoneally administered in a volume of 200 μL with a frequency of twice a week for 3 weeks, starting from the day following the transplantation. […]

B1: Hu4A-2F7: humanized antibody VH1/VL1; VH SEQ ID NO: 72, VL SEQ ID NO: 74 (antibody, V domains shown)
VH: QVTLKESGPALVKPTQTLTLTCTFSGFSLSTSGMGVDWIRQPPGKALEWLAHIWWDDDKYYNPSLKSQLTISKDTSKNQVVLTMTNMDPVDTATYYCARSYGYDMDYYAMDYWGQGTTVTVSS
VL: DIQMTQSPSSLSASVGDRVTITCRASQEISGYLSWLQQKPGKAPKRLIYAASTLSSGVPSRFSGSGSGTDFTLTISSLQPEDFATYYCLQYASYPPWTFGGGTKVEIK
B1: in the assay with CXCR2-expressing cells, the “Migration of CXCR2-expressing cells (positive cells per unit area)” value (“Migration … (positive cells per unit area)” for short) is listed as “significantly suppress the migration of CXCR2-expressing cells”. Moreover, the “Antitumor activity (tumor area)” value in assay [1] is “significantly suppress an increase in the tumor area”.

B2: modified human antibody 028-8-12: human antibody 028-8-12 with amino acid modifications in CDR and VL regions; VH SEQ ID NO: 63, VL SEQ ID NO: 67 (antibody, V domains shown)
VH: EVQLLESGGGLVQPGGSLRLSCAASGFTFSELSMSWVRQAPGKGLEWVSAISGSGGSTYYASSVKGRFTISRDNSKNTLYLQMNSLRAEDTAVYYCAREGGRLEPYYYYYAMDVWGQGTPVTVSS
VL: DIQMTQSPSSLSASVGDRVTITCRASQSISDNLHWYQQKPGKAPKLLIYDASNLESGVPSRFSGSGSGTDFTLTISSLQPEDFATYYCQQYYSTPLTFGQGTKLEIK
Turning to B2, the “Migration … (positive cells per unit area)” value in the assay on CXCR2-expressing cells is reported as “significantly suppress the migration of CXCR2-expressing cells”. Moreover, in assay [1], the “Antitumor activity (tumor area)” value is on record as “significantly suppress an increase in the tumor area”.

B3: Hu1A-7H10: humanized antibody VH1/VL1; VH SEQ ID NO: 68, VL SEQ ID NO: 70 (antibody, V domains shown)
VH: QVTLKESGPVLVKPTETLTLTCTVSGFSSTTYGVHWVRQPPGKALEWLGVIWAGGSTNYNAALMSRLTISKDTSKSQVVLTMTNMDPVDTATYYCATQYHYPFAYWGQGTLVTVSS
VL: DIQMTQSPSSLSASVGDRVTITCKASENVGIYVSWYQQKPGKAPKLMIYGASNRNTGVPSRFSGSGSGTDFTLTISSLQPEDFATYYCGQSYSYPLTFGGGTKVEIK
Consider B3, for which the “Migration … (positive cells per unit area)” value in the assay with CXCR2-expressing cells is recorded as “significantly suppress the migration of CXCR2-expressing cells”. For the same molecule, the “Antitumor activity (tumor area)” value in assay [1] is reported as “significantly suppress an increase in the tumor area”.
